The record followed here is US20210063414A1, “METHODS FOR PREVENTING AND/OR TREATING BONE LOSS CONDITIONS BY MODULATING IRISIN” (Dana-Farber Cancer Institute, Inc., priority 2018, published 2021).

Assay [1] concerns the target T1, MLO-Y4 cell surface proteins (Mus musculus, UniProt P55292).
T1 construct: endogenous in cells; host or cells: MLO-Y4
T1 sequence (P55292 136-902): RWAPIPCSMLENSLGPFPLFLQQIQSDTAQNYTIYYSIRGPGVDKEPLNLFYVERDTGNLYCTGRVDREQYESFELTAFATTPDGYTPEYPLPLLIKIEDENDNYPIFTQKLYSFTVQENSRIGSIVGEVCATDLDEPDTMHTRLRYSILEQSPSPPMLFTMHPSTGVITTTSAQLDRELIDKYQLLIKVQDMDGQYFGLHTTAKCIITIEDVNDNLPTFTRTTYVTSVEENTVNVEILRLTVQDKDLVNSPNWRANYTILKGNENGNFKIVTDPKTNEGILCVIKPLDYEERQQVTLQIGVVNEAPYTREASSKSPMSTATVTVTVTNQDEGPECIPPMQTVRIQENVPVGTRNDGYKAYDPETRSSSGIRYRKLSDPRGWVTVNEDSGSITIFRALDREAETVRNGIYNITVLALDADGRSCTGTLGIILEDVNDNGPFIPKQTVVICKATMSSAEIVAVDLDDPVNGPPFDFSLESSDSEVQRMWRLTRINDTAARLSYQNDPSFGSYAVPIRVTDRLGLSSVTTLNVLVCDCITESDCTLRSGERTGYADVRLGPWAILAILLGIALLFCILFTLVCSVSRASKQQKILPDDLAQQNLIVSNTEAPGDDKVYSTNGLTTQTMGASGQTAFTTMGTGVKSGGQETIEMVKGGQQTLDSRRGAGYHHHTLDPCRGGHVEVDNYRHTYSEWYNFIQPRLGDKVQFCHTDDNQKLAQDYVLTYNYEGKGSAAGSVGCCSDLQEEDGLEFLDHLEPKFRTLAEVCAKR
The assay is described as follows: Crosslinking/co-immunoprecipitation/mass spectrometry (TMT quantitative proteomics) to identify irisin receptors. The following applies: co-precipitated protein Dsc2 (DSC2_MOUSE). Format: binding. In a few lines:
(§1)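 Relative protein abundance came from 6-plex TMT MS3 quantitation on an Orbitrap Fusion Lumos, after in-gel trypsin digestion of Coomassie-stained SDS-PAGE lanes. Input was a Ni-NTA pulldown (250 mM imidazole elution) of lysates from murine MLO-Y4 cells. These cells were treated on ice with His-tagged irisin or adipsin (10 nM, 20 min) in serum-free medium, then crosslinked with 1.5 mM DTSSP for 30 min.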

Assay [2] deals with T2, MLO-Y4 cell surface proteins (Mus musculus, UniProt P61161).
T2 construct: endogenous in cells; host or cells: MLO-Y4
Described as above. The assay is classed as binding. As to conditions: co-precipitated protein Actr2 (ARP2_MOUSE). In a few lines:
as §1

Regarding adipsin, the values for the TMT signal-to-noise ratio in assay [1] and in assay [2] were 93.7977 and 153.626, respectively.
